Four molecules from patent US20220135684A1 (Xencor, published 2022) can be followed below.

For experiment [1], the target named is T1, cell-surface CD28 on human PBMCs (human, UniProt P10747 19-220).
T1 construct: whole, on cells
Description: flow cytometry on human PBMCs, anti-human Fc secondary. (In flow cytometry, cells or beads pass a laser one at a time.)

Experiment [2] concerns the target T2, human CD28 (human, UniProt P10747 19-152).
T2 construct: also called Cluster of Differentiation 28; Tp44
As to the kind of experiment: Octet (BLI), scFv arm in a bsAb; value told in the text. (In general: Biolayer interferometry detects binding as a change in optical thickness at a sensor tip.)

For experiment [3], the target named is T2, human CD28. As to the kind of experiment: Octet (BLI), scFv arm in the bsAb; value told in the text.
Experiment [4] has as its target T3, human PDL1 antigen (human, UniProt Q9NZQ7 19-238).
T3 construct: they are put here
As to the kind of experiment: Biacore (SPR), Fab arm in the bsAb; value told in the text. Background: Surface plasmon resonance follows binding to a sensor surface in real time, without labels.

B1: XENP27181 (antibody, human IgG1, kappa, V domains shown)
VH: QVQLQESGPGLVKPSETLSLTCAVSGFSLTSYGVHWIRQPPGKGLEWLGVIWPGGGTNFNSALMSRLTISEDTSKNQVSLKLSSVTAADTAVYYCARDRAYGNYLYAMDYWGQGTLVTVSS
VL: DIQMTQSPSSLSASVGDRVTITCRASESVEYYVTSLMQWYQQKPGKAPKLLIYAASNVDSGVPSRFSGSGSGTDFTLTISSLQPEDIATYYCQQSRKVPFTFGGGTKVEIKR
notes: Bivalent mAb, IgG1 backbone with E233P/L234V/L235A/G236del/S267K ablation variant; also called HuTN228; prior art anti-CD28 mAb HuTN228; copies: 2 + 2
Regarding B1, the binding result in experiment [1] was “binds”.

B2: XENP37261 (bispecific antibody)
heavy: EVQLLESGGGLVQPGGSLRLSCAASGFTFSSYDMSWVRQAPGKRLEWVSTISSGGSFTHYPDSVKGRFTISRDNSKNTLYLQMNSLRAEDTAVYYCVRRSGDWYFDVWGAGTTVTVSSASTKGPSVFPLAPSSKSTSGGTAALGCLVKDYFPEPVTVSWNSGALTSGVHTFPAVLQSSGLYSLSSVVTVPSSSLGTQTYICNVNHKPSDTKVDKKVEPKSCDKTHTCPPCPAPPVAGPSVFLFPPKPKDTLMISRTPEVTCVVVDVKHEDPEVKFNWYVDGVEVHNAKTKPREEEYNSTYRVVSVLTVLHQDWLNGKEYKCKVSNKALPAPIEKTISKAKGQPREPQVYTLPPSREEMTKNQVSLTCDVSGFYPSDIAVEWESDGQPENNYKTTPPVLDSDGSFFLYSKLTVDKSRWEQGDVFSCSVMHEALHNHYTQKSLSLSPGK
scFv-Fc: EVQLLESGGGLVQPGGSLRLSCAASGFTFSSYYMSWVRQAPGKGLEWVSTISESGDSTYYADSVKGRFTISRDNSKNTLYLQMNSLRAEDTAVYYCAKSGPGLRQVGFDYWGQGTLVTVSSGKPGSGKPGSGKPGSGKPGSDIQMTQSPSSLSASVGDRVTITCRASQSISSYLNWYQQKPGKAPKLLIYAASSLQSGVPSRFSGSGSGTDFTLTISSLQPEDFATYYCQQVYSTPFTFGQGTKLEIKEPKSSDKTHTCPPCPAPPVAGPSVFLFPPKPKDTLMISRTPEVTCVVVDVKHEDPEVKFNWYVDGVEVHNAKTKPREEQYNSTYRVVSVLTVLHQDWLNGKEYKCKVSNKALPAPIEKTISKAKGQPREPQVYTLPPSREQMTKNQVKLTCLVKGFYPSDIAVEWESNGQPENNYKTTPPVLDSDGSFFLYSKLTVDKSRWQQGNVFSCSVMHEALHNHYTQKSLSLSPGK
light: EIVLTQSPGTLSLSPGERATLSCRVSSSISSSNLHWYQQKPGQSPRPLIYGTSNLASGVPVRFSGSGSGTDYTLTISRLEPEDFAVYYCQQWSSYPLYTFGGGTKVEIKRTVAAPSVFIFPPSDEQLKSGTASVVCLLNNFYPREAKVQWKVDNALQSGNSQESVTEQDSKDSTYSLSSTLTLSKADYEKHKVYACEVTHQGLSSPVTKSFNRGEC
notes: 1+1 Fab-scFv-Fc format; also called αPDL1×αCD28 bsAb; 1A7_H1.14_L1.71
The term Kd denotes a measure of binding affinity in units of concentration. Turning to B2, the dissociation constant Kd was found to be 37 nM in experiment [2] and 36 nM in experiment [3].

B3: XENP38514 (bispecific antibody)
heavy: EVQLLESGGGLVQPGGSLRLSCAASGFTFSVYDMSWVRQAPGKRLEWVSTISSGGSFTHYPDSVKGRFTISRDNSKNTLYLQMNSLRAEDTAVYYCVRRSLDWYFDVWGAGTTVTVSSASTKGPSVFPLAPSSKSTSGGTAALGCLVKDYFPEPVTVSWNSGALTSGVHTFPAVLQSSGLYSLSSVVTVPSSSLGTQTYICNVNHKPSDTKVDKKVEPKSCDKTHTCPPCPAPPVAGPSVFLFPPKPKDTLMISRTPEVTCVVVDVKHEDPEVKFNWYVDGVEVHNAKTKPREEEYNSTYRVVSVLTVLHQDWLNGKEYKCKVSNKALPAPIEKTISKAKGQPREPQVYTLPPSREEMTKNQVSLTCDVSGFYPSDIAVEWESDGQPENNYKTTPPVLDSDGSFFLYSKLTVDKSRWEQGDVFSCSVMHEALHNHYTQKSLSLSPGK
scFv-Fc: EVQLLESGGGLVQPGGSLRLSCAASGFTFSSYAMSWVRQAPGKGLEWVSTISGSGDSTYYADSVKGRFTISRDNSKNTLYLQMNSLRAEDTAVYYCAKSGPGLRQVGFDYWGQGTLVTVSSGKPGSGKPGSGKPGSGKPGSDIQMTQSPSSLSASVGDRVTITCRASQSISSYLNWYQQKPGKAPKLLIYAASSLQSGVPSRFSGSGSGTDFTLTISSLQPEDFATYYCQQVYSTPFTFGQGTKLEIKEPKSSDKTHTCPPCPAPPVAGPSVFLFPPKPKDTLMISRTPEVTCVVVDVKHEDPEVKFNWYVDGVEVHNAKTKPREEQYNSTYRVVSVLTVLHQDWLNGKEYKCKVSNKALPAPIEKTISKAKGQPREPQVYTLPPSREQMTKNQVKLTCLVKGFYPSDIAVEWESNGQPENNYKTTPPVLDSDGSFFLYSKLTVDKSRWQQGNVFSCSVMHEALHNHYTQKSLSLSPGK
light: EIVLTQSPGTLSLSPGERATLSCRVSSSIQSTNLHWYQQKPGQSPRPLIYGTSVLATGVPVRFSGSGSGTDYTLTISRLEPEDFAVYYCQQWSSYPLYTFGGGTKVEIKRTVAAPSVFIFPPSDEQLKSGTASVVCLLNNFYPREAKVQWKVDNALQSGNSQESVTEQDSKDSTYSLSSTLTLSKADYEKHKVYACEVTHQGLSSPVTKSFNRGEC
With B3, in experiment [4], binding was characterised by a dissociation constant (Kd) of 0.17 nM.

B4: XENP28428 (antibody, V domains shown)
VH: EVQLLESGGGLVQPGGSLRLSCAASGFTFSSYAMSWVRQAPGKGLEWVSTISGSGDSTYYADSVKGRFTISRDNSKNTLYLQMNSLRAEDTAVYYCAKSGPGLRQVGFDYWGQGTLVTVSS
VL: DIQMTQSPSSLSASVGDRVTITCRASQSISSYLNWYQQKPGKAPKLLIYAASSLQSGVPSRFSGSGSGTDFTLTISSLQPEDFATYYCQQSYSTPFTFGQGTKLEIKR
notes: Bivalent mAb, IgG1 backbone with E233P/L234V/L235A/G236del/S267K ablation variant; also called anti-CD28 mAb based on clone 1A7; parental αCD28 mAb 1A7; copies: 2 + 2
As for B4, the binding result in experiment [1] is reported as “binds”.
